Source: the Human Domainome abundance scans (Beltran et al. 2025)
± gives the uncertainty stated by the source.

B1: Death-inducer obliterator 1, residues 263 to 321; numbered along this chain, Q9BTC0 (parent)
chain: GYDPNALYCICRQPHNNRFMICCDRCEEWFHGDCVGISEARGRLLERNGEDYICPNCTI
B2: Homeobox protein SIX6, residues 134 to 184; numbered along this chain, O95475 (parent)
chain: CFKERTRHLLREWYLQDPYPNPSKKRELAQATGLTPTQVGNWFKNRRQRDR

Variants of: B1
Experiment: abundance fitness (aPCA) (normalised: wild type 0, dead -1); higher = more abundant; growth selection in yeast, the domain comes from the species named
Conditions: Homo sapiens

Variant	abundance fitness
Y52F	0.009 ± 0.094
Y52I	-0.196 ± 0.13
Y52L	-0.032 ± 0.081
Y52Q	-0.256 ± 0.14
Y52G	-0.357 ± 0.099
Y52N	-0.334 ± 0.42
Y52H	-0.493 ± 0.17
Y52W	0.09 ± 0.045
Y52E	-0.172 ± 0.092
L45P	-0.014 ± 0.094
L45E	0.075 ± 0.11
L45C	-0.062 ± 0.097
L45M	-0.096 ± 0.11
L45H	0.152 ± 0.091
L45Y	-0.055 ± 0.095
L45W	-0.14 ± 0.094
L45R	-0.005 ± 0.064
L45I	-0.214 ± 0.24
L45T	-0.08 ± 0.15
L45D	-0.01 ± 0.13
L45V	0.016 ± 0.064
L45G	-0.068 ± 0.059
L45K	-0.173 ± 0.14

Variant	abundance fitness
L45F	-0.295 ± 0.15
L45S	0.033 ± 0.07
E50I	-0.14 ± 0.12
E50T	0.037 ± 0.14
E50R	-0.273 ± 0.13
E50A	-0.011 ± 0.11
E50S	-0.192 ± 0.094
E50K	0.04 ± 0.26
E50G	-0.046 ± 0.099
E50V	-0.041 ± 0.11
E50F	-0.019 ± 0.21
E50M	-0.157 ± 0.11
E50C	-0.461 ± 0.17
E50W	-0.356 ± 0.2
E50Y	-0.58 ± 0.16
E50D	-0.005 ± 0.13
E50H	-0.006 ± 0.24
E50L	-0.201 ± 0.094
E50N	-0.027 ± 0.13
E50P	0.068 ± 0.14
C54V	-0.674 ± 0.097
C54K	-0.571 ± 0.15
C54E	-0.781 ± 0.16

Variant	abundance fitness
C54I	-1 ± 0.24
C54N	-0.811 ± 0.25
C54H	-0.245 ± 0.11
C54M	-0.991 ± 0.25
C54T	-0.65 ± 0.17
C54P	-0.821 ± 0.2
C54Y	-1.24 ± 0.26
C54D	-0.999 ± 0.28
C54Q	-0.405 ± 0.21
C54L	-1.19 ± 0.23
C54G	-1.15 ± 0.18
C54S	-0.723 ± 0.12
I59A	0.001 ± 0.27
I59K	0.424 ± 0.21
I59V	0.279 ± 0.12
I59R	-0.046 ± 0.22
I59L	-0.077 ± 0.14
I59D	0.618 ± 0.42
I59G	-0.218 ± 0.39
I59N	0.329 ± 0.27
I59S	-0.015 ± 0.21
I59H	-0.14 ± 0.19
I59W	-0.414 ± 0.41

Variant	abundance fitness
I59M	0.026 ± 0.21
I59F	-0.122 ± 0.27
N56E	-0.007 ± 0.21
N56H	-0.048 ± 0.17
N56Q	-0.155 ± 0.16
N56P	-0.121 ± 0.096
N56A	-0.037 ± 0.12
N56Y	0.021 ± 0.14
N56T	-0.01 ± 0.072
N56R	-0.126 ± 0.11
N56S	0.122 ± 0.071
N56W	-0.002 ± 0.083
N56C	-0.014 ± 0.11
N56L	-0.22 ± 0.078
N56K	-0.525 ± 0.27
N56G	0.064 ± 0.13
N56M	-0.138 ± 0.14
P55Y	-0.245 ± 0.16
P55F	-0.4 ± 0.16
P55Q	0.109 ± 0.15
P55E	-0.116 ± 0.16
P55M	-0.112 ± 0.091
P55I	-0.156 ± 0.096

Variant	abundance fitness
P55N	-0.365 ± 0.2
P55D	-0.66 ± 0.38
P55A	0.078 ± 0.066
P55L	-0.011 ± 0.074
P55G	-0.531 ± 0.23
P55T	0.083 ± 0.069
P55H	-0.04 ± 0.11
P55K	0.265 ± 0.082
P55R	0.019 ± 0.059
P55C	-0.098 ± 0.092
R47F	-0.204 ± 0.11
R47M	-0.155 ± 0.17
R47A	0.083 ± 0.093
R47D	0.268 ± 0.16
R47S	0.037 ± 0.072
R47T	0.134 ± 0.12
R47V	0.188 ± 0.09
R47I	0.058 ± 0.092
R47E	-0.043 ± 0.13
R47G	0.111 ± 0.083
R47Y	-0.286 ± 0.11
R47K	0.359 ± 0.075
R47P	0.186 ± 0.083

Variant	abundance fitness
R47L	0.079 ± 0.071
R47Q	-0.346 ± 0.38
R47W	-0.062 ± 0.11
R47N	-0.05 ± 0.2
T58S	0.047 ± 0.061
T58P	0.014 ± 0.087
T58I	0.111 ± 0.09
T58D	0.138 ± 0.094
T58Y	-0.289 ± 0.092
T58A	0.084 ± 0.064
T58H	0.046 ± 0.23
T58L	0.127 ± 0.061
T58K	0.123 ± 0.1
T58M	-0.115 ± 0.12
T58R	0.3 ± 0.067
T58C	0.194 ± 0.16
T58V	-0.055 ± 0.079
T58F	-0.264 ± 0.15
T58G	-0.006 ± 0.073

Variants of: B2
Experiment: as above
Conditions: Homo sapiens

Variant	abundance fitness
F2P	-0.383 ± 0.11
F2G	-0.017 ± 0.051
F2A	-0.111 ± 0.043
F2L	-0.023 ± 0.069
F2M	0.192 ± 0.093
F2S	0.256 ± 0.042
F2I	0.179 ± 0.14
F2T	0.196 ± 0.081
F2Q	-0.182 ± 0.09
F2C	0.025 ± 0.067
F2W	-0.369 ± 0.046
F2H	-0.013 ± 0.11
F2D	0.05 ± 0.091
F2E	0.102 ± 0.094
F2V	-0.255 ± 0.063
F2Y	-0.11 ± 0.14
F2K	0.247 ± 0.11

Variant	abundance fitness
F2N	0.333 ± 0.36
F2R	-0.407 ± 0.088
K3C	-0.06 ± 0.086
K3F	-0.095 ± 0.097
K3P	-0.1 ± 0.11
K3E	-0.083 ± 0.11
K3G	-0.358 ± 0.083
K3M	-0.171 ± 0.067
K3D	0.122 ± 0.054
K3A	-0.19 ± 0.059
K3I	-0.17 ± 0.21
K3L	-0.181 ± 0.094
K3N	-0.196 ± 0.21
C1F	0.095 ± 0.31
C1S	0.116 ± 0.18
C1G	0 ± 0.27
